The source of these data is US20130287684A1 (SYMPHOGEN A S, published 2013).

Changes are numbered by the printed parent chain.

In experiment [1] the target is T1, human HER3 receptor (human, UniProt P21860 20-643).
T1 construct: also called ErbB3
Kind of experiment: method not named there (Example 1: HER3 ELISA and confocal microscopy on MCF-7 cells). The protocol:
Briefly, Nunc Maxisorb plates (cat.#464718) were coated with 1 μg/ml HER3 protein (R&D Systems cat.#348-RB), diluted in PBS at 4° C. overnight. Prior to blocking in 50 μl 2% milk-PBS+0.05% Tween 20 the plates were washed once with PBS-T. The plates were washed once with PBS-T and 20 μl of 2% milk-PBS-T, and 10 μl supernatants from FreeStyle293 transfectants were added and incubated for 1 hour at room temperature, after which the plates were washed once with PBS-T, 20 μl per well. Secondary antibody (HRP-Goat-anti-human kappa light chain, Serotec, cat.# STAR 100P) diluted 1:25000 in 2% milk-PBS-T was added to detect the antibodies bound to the wells and incubated for 1 hour at room temperature. The plates were washed once in PBS-T before addition of 25 μl substrate (Kem-En-Tec Diagnostics, cat.#4518) that was incubated for 5 min. 25 μl 1M sulphuric acid was added after the incubation to stop the reaction. Specific signal was detected on an ELISA reader at 450 nm. From the ELISA data 480 positive antibody clones were identified and selected for sequence analysis and validation of binding to HER3.
The 119 clones were screened for binding to the HER3-overexpressing breast cancer cell line (MCF-7) using confocal microscopy. 10,000 MCF-7 cells were seeded into each well of 384-well cell carrier plates (Perkin Elmer, cat.#6007439) and allowed to attach overnight. The media was again discarded and the cells were washed and fixed with 2% formaldehyde solution (Aldrich cat.#533998). After washing, 40 μl of antibody supernatant was transferred to each well and plates were incubated for 2 hours, after which the media in the wells was discarded and 30 μl new media containing 2 μg/ml of Alexa-488 labelled goat anti-human IgG (H+L, Invitrogen cat.# A11013), 2 μg/ml CellMask Blue (Invitrogen cat.# H34558) and 1 μM Hoechst 33342 (Invitrogen cat.# H3570) was added to each well and plates were incubated for another 30 minutes. The level of fluorescence was then measured using an OPERA high throughput confocal microscope (Perkin Elmer).

The target in experiment [2] is T2, fully human HER3 ECD construct with N-terminal histidine tag (human, UniProt P21860 20-643).
T2 construct: extracellular domain; Transiently expressed in Hek 293 cells, purified on nickel NTA; also called fully human ECD construct
Kind of experiment: ELISA on coated His-tagged HER3 ECD constructs. An excerpt:
Because the anti-HER3 antibody panel was raised in mice, antibodies are not expected to recognize epitopes present on murine HER3 due to the concept of “self tolerance”. Consequently, chimeric receptor constructs in which the human sequences coding for individual domains are replaced by murine sequences can be employed for epitope mapping purposes, since the antibodies are not expected to bind the murines sequence inserted in the human HER3 construct. Human and murine HER3 mRNA sequences (accession number M29366 and NM_{—}010153.1 respectively) were downloaded from NCBI, and extracellular domains I-IV were assigned as described by Kani et al. (J. Biol. Chem. (2005) 280:8238-8247). Chimeric human/murine domain exchange variants, in which each of the four human extracellular HER3 domains were replaced by the respective murine DNA sequence, were provided with an N-terminal histidine tag, gene synthesized and transiently expressed in Hek 293 cells. A fully human and a murine ECD construct were used as positive and negative controls, respectively. […] The next day wells were blocked with 1% BSA/PBS-T and titrations of antibodies diluted in blocking buffer were added. […]
The domain mapping of anti-HER3 antibodies is shown in FIGS. 27-32, which is a titration of anti-HER3 antibodies and negative controls against coated HER3 antigens. Bound antibody was detected with an anti-human Fc antibody. […]
For orientation: ELISA stands for enzyme-linked immunosorbent assay.

T1 sequence (P21860 20-643 limits assumed): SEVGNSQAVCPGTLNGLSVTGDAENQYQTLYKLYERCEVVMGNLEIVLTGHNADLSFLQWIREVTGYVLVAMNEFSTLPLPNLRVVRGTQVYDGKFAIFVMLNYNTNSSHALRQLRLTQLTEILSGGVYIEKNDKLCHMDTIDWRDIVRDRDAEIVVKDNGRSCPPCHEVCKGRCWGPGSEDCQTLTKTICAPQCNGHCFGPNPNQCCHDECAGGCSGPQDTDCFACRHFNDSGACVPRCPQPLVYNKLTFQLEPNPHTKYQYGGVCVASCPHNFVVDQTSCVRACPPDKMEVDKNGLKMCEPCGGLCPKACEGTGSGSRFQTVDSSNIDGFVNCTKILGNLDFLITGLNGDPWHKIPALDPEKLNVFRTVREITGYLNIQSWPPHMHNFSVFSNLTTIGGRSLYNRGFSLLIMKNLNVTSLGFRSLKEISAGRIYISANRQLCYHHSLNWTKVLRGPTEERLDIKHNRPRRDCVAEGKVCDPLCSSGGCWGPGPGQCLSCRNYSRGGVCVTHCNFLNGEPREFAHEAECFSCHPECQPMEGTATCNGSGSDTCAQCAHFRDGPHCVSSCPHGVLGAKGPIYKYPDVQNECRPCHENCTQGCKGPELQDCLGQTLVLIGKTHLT
T2 sequence (P21860 20-643): as the sequence (P21860 20-643 limits assumed) above

B1: antibody 5259 (antibody, human IgG1, kappa, V domains shown)
VH: EVQLVESGPGLVAPSQSLSITCTVSGFSLSRYTIHWVRQPPGKGLEWLGMIWGGGSTDYNSALKSRLSISKDNSKSQLFLKMNSLQTDDTAIYYCARKGITTTGFDYWGQGTTLTVSS
VL: NIVLTQSPAIMSASPGEKVTMTCSASSSVSYMFWYQQKPGSSPRLLIYDTSNLASGVPVRFSGSGSGTSYSLTISRMEAEDAATYYCQQLNSYPPTFGGGTKLEIKR
notes: Chimeric: murine variable regions, human kappa constant region, expressed as full-length IgG
With B1, in experiment [1], the binding result is “binds”.

B2: antibody 5144 (antibody, human IgG1, kappa, V domains shown)
VH: B1 VH with E1Q, V5K, T33S, I34V, S68N, S70N, L78V, L80F, I92M, A96V
VL: B1 VL with N1H, F33Y, G40R, E80D, N91S, I105L
notes: as for B1
Regarding B2, in experiment [1], the binding result is recorded as “binds”.

B3: antibody 4935 (antibody, human IgG1, kappa, V domains shown)
VH: QIQLVQSGPELVKPGASVRISCKASGYTFTSYYIHWVKQRPGQGLEWIGWIYPGNVHTKYTEKFKGKATLTADKSSSTAYMHLSSLTSEDSAVYFCVRRYGYDGDWFAYWGQGTLVTVSS
VL: DIQMTQSPASLAVSLGQRATISCRASESVDSYGNTFMHWYQQKPGQPPKLLIYRASNLESGIPARFSGSGSRTDFTLTINPVEADDVATYYCQQSNEDPWTFGGGTKLEIKR
notes: as for B1
With B3, in experiment [1], the binding result is on record as “binds”.

B4: antibody 5038 (antibody, human IgG1, kappa, V domains shown)
VH: EVKLVESGPGLVKPSQSLSLTCSVTGYSITSGFYWTWIRQFPGNKLEWMGFISYDGSNNYNPSLKNRISITRDTSKNQFFLKLNSVTTEDTATYYCARGGGYYGNLFDYWGQGTTLTVSS
VL: DIVMTQTTSSLSASLGDRVTISCRPSQDISNYVNWFQQKPGGTVKLLIFHTSRLHSGVPSRFSGSGSGTDYSLTISTLEQEDIAIYFCQQGITLPWTFGGGTKLEIKR
notes: as for B1
Turning to B4, the binding result in experiment [1] is reported as “binds”.

B5: antibody 4889 (antibody, human IgG1, kappa, V domains shown)
VH: EVQLVESGPGLVKPSQSLSLTCSVTGYSITSAYYWNWIRQFPGNKLEWMGYVSYDGSNTYNPSLKNRISITRDTSKNQFFLKLISLTTEDTATYYCAREGDYGYSDYWGQGTTLTVSS
VL: DIVMTQSTSSLSASLGDRVTVSCRASQDISNYLNWYQQKPDGTIKLLIYYTSRLHSGVPSRFSGSGSGTDYSLTISNLDQEDIATYFCQQSNTLPWTFGGGTKLEIKR
notes: as for B1
As for B5, the binding result in experiment [1] was “binds”.

B6: antibody 5082 (antibody, human IgG1, kappa, V domains shown)
VH: B5 VH with V5K, L46V, V52I, S53G, S57R, I84N, A97S
VL: B5 VL with S7A, S30N, I44V, H55Q, T69I, D79E, I83F, A84V, N92E, I106L
notes: Chimeric: murine variable regions, human IGHG1 and kappa constant regions; also called mAb 5082
For the molecule B6, the binding result in experiment [1] is listed as “binds”.

B7: antibody 4785 (antibody, human IgG1, kappa, V domains shown)
VH: EVQLQQSGPELVMPGASVKISCKASGYSFTSYYVHWVKQRPGQGLEWIGWIYPGSGHTKYNEKFKDKATLTADTSSSTAYMQLSSLTSEDSAVYYCARPPYYSNYADVWGTGTTVTVSS
VL: DIVMTQSPSSLTVTAGEKVTMSCKSSQSLLNSGNQKNYLTWYQQKPGQPPKLLIYWASTRESGVPDRFTGSGSGTDFTLTISSVQAEDLAVYYCQSDYSYPYTFGGGTKLEIKR
notes: as for B1
In the case of B7, the binding result in experiment [1] is given as “binds”.

B8: antibody 5143 (antibody, human IgG1, kappa, V domains shown)
VH: B7 VH with E1Q, M13K, V34I, D66G
VL: B7 VL with L39M, P49S, S96N, I112L
notes: as for B1
Regarding B8, the binding result in experiment [1] was “binds”.

B9: antibody 5106 (antibody, human IgG1, kappa, V domains shown)
VH: EVKLVESGGDLVKPGESLKLSCAASGFTFSSFAMSWVRQTPEKRLEWVATISDGGSHLYYPDNVKGRFTISRDNAKNNLYLQMSHLKSEDTAMYYCARGILDYWGQGTSVTVSS
VL: DIVMTQATSSLSASLGDRVTISCSASQDINNYLNWYQQKPDGTIKLLIYYTSSLHSGVPSRFSGSGSGTDYSLTISNLEPEDIATYYCQQYSRIPYTFGGGTKLEIKR
notes: as for B1
Regarding B9, the binding result in experiment [1] and in experiment [2] was “binds” each time.

B10: antibody 5101 (antibody, human IgG1, kappa, V domains shown)
VH: B9 VH with D10G, E16G, F32Y, A33G, S52R, S56G, H57Y, L58T, P61S, K76Q
VL: QIVLTQSPSSLSASLGDRVTISCRASQDISNYLNWFQQRPDGTVKLLIYYTSRLHSGVPSRFSGSGSGTDYSLTISNLEQEDIATYFCQQGNTLPYTFGGGTKLELKR
notes: as for B1
As for B10, the binding result in experiment [1] and in experiment [2] was “binds” each time.
